# System: Escherichia coli TOP10
# Experiment: shrunken log2 fold change of peptide-encoding DNA abundance (4.5 h post-induction vs induction); higher = less antimicrobial activity (less host growth inhibition)
# Conditions: time post-induction: 4.5 h; library: site-saturation at positions 5, 18, 19, 20
# 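Further: peptides expressed intracellularly from a pBAD plasmid library in pooled LB shake-flask culture, induced with 0.3% L-arabinose, DNA abundance read by NGS, three biological replicates, DESeq2 with apeglm shrinkage.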
row,Sequence,shrunken log2 fold change
1,RRIRVRPPRLPRPRPRPRDMPRP,-0.0624
2,RRIRARPPRLPRPRPRPVNFPRP,0.629
3,RRIRMRPPRLPRPRPRPWDEPRP,0.391
4,RRIRHRPPRLPRPRPRPKDGPRP,0.326
5,RRIRMRPPRLPRPRPRPEAVPRP,3.72
6,RRIRDRPPRLPRPRPRPNFQPRP,0.151
7,RRIRARPPRLPRPRPRPAIYPRP,-0.0399
8,RRIRDRPPRLPRPRPRPQPHPRP,0.228
9,RRIRVRPPRLPRPRPRPGSNPRP,0.0377
10,RRIRQRPPRLPRPRPRPMCQPRP,-0.053
11,RRIRARPPRLPRPRPRPVHHPRP,-0.0524
12,RRIRHRPPRLPRPRPRPWYCPRP,-0.0324
13,RRIRKRPPRLPRPRPRPFEYPRP,-0.00133
14,RRIRLRPPRLPRPRPRPAGHPRP,-0.0387
15,RRIRLRPPRLPRPRPRPVFSPRP,-0.112
16,RRIRLRPPRLPRPRPRPWNEPRP,-0.11
17,RRIRWRPPRLPRPRPRPVALPRP,0.459
18,RRIRFRPPRLPRPRPRPRKWPRP,0.498
19,RRIRNRPPRLPRPRPRPAVVPRP,0.251
20,RRIRQRPPRLPRPRPRPAMQPRP,0.109
21,RRIRCRPPRLPRPRPRPDDFPRP,0.0333
22,RRIRSRPPRLPRPRPRPEGSPRP,0.223
23,RRIRHRPPRLPRPRPRPGREPRP,0.0529
24,RRIRNRPPRLPRPRPRPHDYPRP,0.0503
25,RRIRNRPPRLPRPRPRPCMYPRP,-0.0592

row,Sequence,shrunken log2 fold change
1,RRIRKRPPRLPRPRPRPSTHPRP,-0.17
2,RRIRERPPRLPRPRPRPVPNPRP,-0.14
3,RRIRSRPPRLPRPRPRPQVCPRP,-0.0852
4,RRIRVRPPRLPRPRPRPPLLPRP,0.287
5,RRIRNRPPRLPRPRPRPPEFPRP,-0.144
6,RRIRDRPPRLPRPRPRPCAIPRP,0.029
7,RRIRQRPPRLPRPRPRPTDQPRP,0.411
8,RRIRFRPPRLPRPRPRPVAFPRP,-0.141
9,RRIRARPPRLPRPRPRPICGPRP,0.248
10,RRIRWRPPRLPRPRPRPFNGPRP,-0.0132
11,RRIRFRPPRLPRPRPRPNDEPRP,-0.648
12,RRIRQRPPRLPRPRPRPQVMPRP,0.095
13,RRIRTRPPRLPRPRPRPMILPRP,-0.0648
14,RRIRQRPPRLPRPRPRPPTYPRP,-0.0183
15,RRIRHRPPRLPRPRPRPLDPPRP,-0.331
16,RRIRCRPPRLPRPRPRPCVSPRP,-0.0805
17,RRIRMRPPRLPRPRPRPVAWPRP,0.213
18,RRIRVRPPRLPRPRPRPFILPRP,-0.384
19,RRIRSRPPRLPRPRPRPRDGPRP,1.5
20,RRIRHRPPRLPRPRPRPPRIPRP,0.0175
21,RRIRMRPPRLPRPRPRPWHFPRP,0.201
22,RRIRIRPPRLPRPRPRPKMQPRP,-0.293
23,RRIRFRPPRLPRPRPRPYRKPRP,-0.186
24,RRIRFRPPRLPRPRPRPEEFPRP,-0.0316
25,RRIRERPPRLPRPRPRPDYTPRP,-1.01

row,Sequence,shrunken log2 fold change
1,RRIRHRPPRLPRPRPRPLPFPRP,-0.73
2,RRIRTRPPRLPRPRPRPCNAPRP,-0.228
3,RRIRVRPPRLPRPRPRPAMMPRP,0.464
4,RRIRNRPPRLPRPRPRPFWSPRP,-0.146
5,RRIRKRPPRLPRPRPRPLGDPRP,0.227
6,RRIRSRPPRLPRPRPRPPRKPRP,0.73
7,RRIRKRPPRLPRPRPRPGACPRP,0.237
8,RRIRVRPPRLPRPRPRPAPMPRP,0.324
9,RRIRFRPPRLPRPRPRPCRAPRP,0.0454
10,RRIRCRPPRLPRPRPRPERDPRP,0.325
11,RRIRCRPPRLPRPRPRPTMTPRP,0.106
12,RRIRRRPPRLPRPRPRPDSHPRP,-0.00863
13,RRIRFRPPRLPRPRPRPALEPRP,0.0373
14,RRIRSRPPRLPRPRPRPRGVPRP,0.749
15,RRIRQRPPRLPRPRPRPLEQPRP,0.0165
16,RRIRRRPPRLPRPRPRPYNGPRP,-0.0173
17,RRIRYRPPRLPRPRPRPDTKPRP,-0.0212
18,RRIRFRPPRLPRPRPRPDECPRP,-0.399
19,RRIRSRPPRLPRPRPRPTLQPRP,0.128
20,RRIRHRPPRLPRPRPRPWCRPRP,-0.352
21,RRIRERPPRLPRPRPRPSKKPRP,-0.645
22,RRIRRRPPRLPRPRPRPQSRPRP,0.00841
23,RRIRARPPRLPRPRPRPCKFPRP,-0.138
24,RRIRMRPPRLPRPRPRPSEWPRP,0.0913
25,RRIRGRPPRLPRPRPRPNGSPRP,-0.0904

row,Sequence,shrunken log2 fold change
1,RRIRMRPPRLPRPRPRPYCHPRP,-0.545
2,RRIRARPPRLPRPRPRPVYQPRP,-0.068
3,RRIRLRPPRLPRPRPRPACPPRP,-0.00982
4,RRIRLRPPRLPRPRPRPSGMPRP,-0.204
5,RRIRNRPPRLPRPRPRPSLKPRP,-0.47
6,RRIRARPPRLPRPRPRPRYDPRP,0.166
7,RRIRCRPPRLPRPRPRPDYFPRP,-0.248
8,RRIRDRPPRLPRPRPRPPDNPRP,-0.272
9,RRIRNRPPRLPRPRPRPMSQPRP,-0.0161
10,RRIRWRPPRLPRPRPRPYTNPRP,-0.993
11,RRIRGRPPRLPRPRPRPQRMPRP,0.307
12,RRIRQRPPRLPRPRPRPFRWPRP,-0.0233
13,RRIRVRPPRLPRPRPRPGDLPRP,-0.211
14,RRIRFRPPRLPRPRPRPNFYPRP,-0.212
15,RRIRMRPPRLPRPRPRPQTMPRP,0.276
16,RRIRRRPPRLPRPRPRPSAVPRP,0.368
17,RRIRTRPPRLPRPRPRPREQPRP,0.198
18,RRIRMRPPRLPRPRPRPLPQPRP,0.742
19,RRIRKRPPRLPRPRPRPQAQPRP,0.0703
20,RRIRRRPPRLPRPRPRPVRAPRP,0.935
21,RRIRRRPPRLPRPRPRPWTDPRP,-0.131
22,RRIRYRPPRLPRPRPRPTTTPRP,-0.00235
23,RRIRPRPPRLPRPRPRPTIRPRP,0.172
24,RRIRLRPPRLPRPRPRPRAYPRP,0.0155
25,RRIRYRPPRLPRPRPRPVCDPRP,-0.623

row,Sequence,shrunken log2 fold change
1,RRIRVRPPRLPRPRPRPEMIPRP,-0.0397
2,RRIRARPPRLPRPRPRPHEAPRP,-0.0395
3,RRIRDRPPRLPRPRPRPCLLPRP,0.491
4,RRIRCRPPRLPRPRPRPAFAPRP,0.134
5,RRIRGRPPRLPRPRPRPYRIPRP,0.178
6,RRIRYRPPRLPRPRPRPSEVPRP,-0.177
7,RRIRFRPPRLPRPRPRPKDMPRP,-0.0249
8,RRIRYRPPRLPRPRPRPCAPPRP,-0.329
9,RRIRVRPPRLPRPRPRPIIIPRP,-0.235
10,RRIRDRPPRLPRPRPRPCCDPRP,0.655
11,RRIRYRPPRLPRPRPRPWRSPRP,0.175
12,RRIRRRPPRLPRPRPRPPKRPRP,0.686
13,RRIRHRPPRLPRPRPRPCCVPRP,-0.193
14,RRIRTRPPRLPRPRPRPLEFPRP,-0.0903
15,RRIRNRPPRLPRPRPRPIGTPRP,0.000741
16,RRIRQRPPRLPRPRPRPVVGPRP,0.101
17,RRIRSRPPRLPRPRPRPKATPRP,0.7
18,RRIRDRPPRLPRPRPRPWGSPRP,-0.0321
19,RRIRGRPPRLPRPRPRPCCNPRP,-0.265
20,RRIRKRPPRLPRPRPRPVTKPRP,0.063
21,RRIRLRPPRLPRPRPRPFLDPRP,-0.228
22,RRIRTRPPRLPRPRPRPPMPPRP,0.144
23,RRIRWRPPRLPRPRPRPSLEPRP,0.067
24,RRIRFRPPRLPRPRPRPQSVPRP,-0.0251
25,RRIRMRPPRLPRPRPRPNIAPRP,0.397

row,Sequence,shrunken log2 fold change
1,RRIRYRPPRLPRPRPRPSLDPRP,-1.07
2,RRIRSRPPRLPRPRPRPKVHPRP,-0.231
3,RRIRIRPPRLPRPRPRPAVIPRP,0.0759
4,RRIRVRPPRLPRPRPRPYHGPRP,-0.237
5,RRIRPRPPRLPRPRPRPGFHPRP,-0.0164
6,RRIRKRPPRLPRPRPRPCFKPRP,0.0163
7,RRIRMRPPRLPRPRPRPNAAPRP,2.83
8,RRIRRRPPRLPRPRPRPTSFPRP,0.264
9,RRIRPRPPRLPRPRPRPPAHPRP,0.466
10,RRIRARPPRLPRPRPRPANEPRP,0.173
11,RRIRYRPPRLPRPRPRPLSWPRP,-0.0279
12,RRIRVRPPRLPRPRPRPMMKPRP,0.168
13,RRIRHRPPRLPRPRPRPLTNPRP,0.185
14,RRIRERPPRLPRPRPRPLFHPRP,-0.367
15,RRIRNRPPRLPRPRPRPNNSPRP,-0.376
16,RRIRRRPPRLPRPRPRPHQIPRP,0.0553
17,RRIRYRPPRLPRPRPRPHICPRP,-0.0358
18,RRIRWRPPRLPRPRPRPKDTPRP,-0.145
19,RRIRQRPPRLPRPRPRPVTHPRP,4.01
20,RRIRQRPPRLPRPRPRPCLSPRP,-0.383
21,RRIRKRPPRLPRPRPRPSQCPRP,0.127
22,RRIRVRPPRLPRPRPRPCTLPRP,-0.196
23,RRIRVRPPRLPRPRPRPMVIPRP,0.0224
24,RRIRSRPPRLPRPRPRPMSTPRP,-0.13
25,RRIRRRPPRLPRPRPRPRCGPRP,0.474

# Source: the supplement of paper PMC9112550, “Optimization of the antimicrobial peptide Bac7 by deep mutational scanning” (BMC Biology, 2022)
